Reference: paper PMC13454268 (Nature Communications, 2026)
Each block holds one compound with its values, some of them ahead of it.

How the values were obtained:
[1] = biological target: Ammonifex degensii KC4 form Iβ rubisco (Ammonifex degensii KC4); assay: SEC-SAXS; 100 µl samples, 1-45 mg/ml rubisco incubated with or without CABP; Shodex KW804 column; 20 mM HEPES-OH pH 8.0, 300 mM NaCl, 10 mM MgCl2, 10 mM NaHCO3; 20 °C; molecular weight by volume of correlation
[2] = biological target: Rhodopseudomonas faecalis form II rubisco (Rhodopseudomonas faecalis); assay: as above
[3] = biological target: Thermodesulfobium acidiphilum form Iβ rubisco (Thermodesulfobium acidiphilum); assay: as above
R. rubrum rubisco = biological target: T1, R. rubrum rubisco (Rhodospirillum rubrum, UniProt P04718); assay: […]-CABP binding, liquid scintillation (active-site count); details: activated enzyme; labelled compound
T1 construct: gene cbbM; form II large subunit, L2 homodimer
T1 sequence (P04718 1-466): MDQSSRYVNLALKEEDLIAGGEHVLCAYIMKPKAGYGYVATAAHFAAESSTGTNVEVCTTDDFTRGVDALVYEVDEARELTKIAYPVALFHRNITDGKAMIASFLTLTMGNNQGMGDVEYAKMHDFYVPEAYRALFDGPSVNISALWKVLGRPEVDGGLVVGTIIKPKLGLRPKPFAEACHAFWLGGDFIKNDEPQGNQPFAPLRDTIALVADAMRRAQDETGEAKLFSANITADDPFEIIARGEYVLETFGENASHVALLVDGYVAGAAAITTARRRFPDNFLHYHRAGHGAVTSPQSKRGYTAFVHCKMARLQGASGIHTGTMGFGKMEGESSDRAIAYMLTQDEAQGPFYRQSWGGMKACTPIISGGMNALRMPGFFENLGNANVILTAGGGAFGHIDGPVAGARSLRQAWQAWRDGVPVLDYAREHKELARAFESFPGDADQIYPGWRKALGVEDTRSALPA

[4] = biological target: Prometheoarchaeum syntrophicum rubisco (Prometheoarchaeum syntrophicum); assay: SEC-SAXS; 100 µl samples, 1-45 mg/ml rubisco incubated with or without CABP; Shodex KW804 column; 20 mM HEPES-OH pH 8.0, 300 mM NaCl, 10 mM MgCl2, 10 mM NaHCO3; 20 °C; molecular weight by volume of correlation
[5] = biological target: Fervidicoccus fontis form Iβ rubisco (Fervidicoccus fontis); assay: as above

Compound: Thermodesulfobium acidiphilum form Iβ rubisco (enzyme)
stoichiometry N [3]: 2

Compound: O=C(O)[C@@](O)(COP(=O)(O)O)[C@H](O)[C@H](O)COP(=O)(O)O [CABP]
14C-CABP binding, liquid scintillation (active-site count) (R. rubrum rubisco): An aliquot of activated R. rubrum was used for determination of rubisco active sites

Compound: Prometheoarchaeum syntrophicum rubisco (enzyme)
stoichiometry N [4]: 2

Other lines, results leading:

stoichiometry N [1]: 2
Compound: Ammonifex degensii KC4 form Iβ rubisco (enzyme)

stoichiometry N [2]: 6
Compound: Rhodopseudomonas faecalis form II rubisco (enzyme)

stoichiometry N [5]: 2
Compound: Fervidicoccus fontis form Iβ rubisco (enzyme)
